Reference: patent US20150056210A1 (published 2015)

Biological target: Spacer-GST
Experiment: SPR (Biacore X-100)

B1: CRB0017_IgG4 (antibody, V domains shown)
VH: QVQLQQSGAELAKPGASVKMSCKASGYTFTSYWMHWVKQRPGQGLEWIGYINPSTGYTEYNQKFKDKATLTADKSSSTAYMQLGSLTSEDSAVYYCARGGYDDLGYWGQGTTLTVSS
VL: DIVITQDELSNPVTSGESVSISCRSSKSLLYKDGKTYLYWFLQRPGQSPQLPIYLMSTRASGVSDRFSGSGSGTDFTLEISRVKAEDVGVYYCQQLVEYPYTFGGGTKLEIK
- Kd: 2.15 nM
